What was measured:
[1] = molecular target: Angiotensin-I Converting Enzyme (ACE) (Homo sapiens, UniProt P12821); assay: Determination of ACE inhibitory activity of hydrolysates in a microtiter plate (Hip-His-Leu substrate); format: biochemical; conditions: no digestion simulation, in %
Method: ACE inhibitory activity can be measured in vitro using a spectrophotometry based assay. The assay is based on the liberation of hippuric acid from Hip-His-Leu substrate catalyzed by ACE.
Calculation of Ace Inhibition:
[formula] 2.4 Further (Optimized) Hydrolysis of Ovomucin with Alcalase Protocol for the DH Determination by TNBS Method Solutions: • 0.21 M Sodium phosphate buffer pH8.2 • 0.21 M NaH2PO4.H2O (25 ml solution) • 0.21 M Na2HPO4.2H2O (500 ml solution) • mix solutions to pH 8.2 • 0.05% TNBS • Dilute TNBS stock (5% solution) to 0.05% in MQ cover reagent tube with aluminium foil and store in dark place • 1% SDS solution • Leucine standard (stock 3 mM Leucine) • Dissolve Leucine in 1% SDS solution. Dilute the stock solution 20×, 10×, 4× en 2× with 1% SDS for analysis • Blank • Dilute non-hydrolysed sample in 1% SDS to a protein concentration of 0.5 mg/ml • Samples • Dilute hydrolysed protein in 1% SDS to a concentration of 0.5 mg/ml in duplo Analysis: • Pipet 15 μl sample (Leucine standard or sample) in microwell. Measure each dilution in twofold in plate (Costar, non-binding plate) • Add 45 μl 0.21 M sodium phosphate buffer pH 8.2 • Add 45 μl 0.05% TNBS. Cover plate with aluminium foil. Incubate plate for 60 minutes in a 50° C. stove. • After incubation add 90 μl 0.1 N HCl • Measure absorption at 340 nm (microplate reader) Calculation of degree of hydrolysis (DH): • Make calibration line of Leucine standard. This calibration line is used to convert absorption values of samples to NH2-equivalents.

plasma ACE activity = molecular target: T1, plasma ACE activity (Rattus norvegicus, UniProt P47820); assay: Acute oral treatment of anaesthetized SHR, plasma ACE activity; format: in vivo; conditions: single oral dose 1000 mg/kg
T1 construct: effects of acute oral treatment of anaesthetized SHR with lysozym/alcalase on blood pressure and plasma ACE activity; from tissue; host or cells: blood plasma of SHR rats
T1 sequence (P47820 36-1313): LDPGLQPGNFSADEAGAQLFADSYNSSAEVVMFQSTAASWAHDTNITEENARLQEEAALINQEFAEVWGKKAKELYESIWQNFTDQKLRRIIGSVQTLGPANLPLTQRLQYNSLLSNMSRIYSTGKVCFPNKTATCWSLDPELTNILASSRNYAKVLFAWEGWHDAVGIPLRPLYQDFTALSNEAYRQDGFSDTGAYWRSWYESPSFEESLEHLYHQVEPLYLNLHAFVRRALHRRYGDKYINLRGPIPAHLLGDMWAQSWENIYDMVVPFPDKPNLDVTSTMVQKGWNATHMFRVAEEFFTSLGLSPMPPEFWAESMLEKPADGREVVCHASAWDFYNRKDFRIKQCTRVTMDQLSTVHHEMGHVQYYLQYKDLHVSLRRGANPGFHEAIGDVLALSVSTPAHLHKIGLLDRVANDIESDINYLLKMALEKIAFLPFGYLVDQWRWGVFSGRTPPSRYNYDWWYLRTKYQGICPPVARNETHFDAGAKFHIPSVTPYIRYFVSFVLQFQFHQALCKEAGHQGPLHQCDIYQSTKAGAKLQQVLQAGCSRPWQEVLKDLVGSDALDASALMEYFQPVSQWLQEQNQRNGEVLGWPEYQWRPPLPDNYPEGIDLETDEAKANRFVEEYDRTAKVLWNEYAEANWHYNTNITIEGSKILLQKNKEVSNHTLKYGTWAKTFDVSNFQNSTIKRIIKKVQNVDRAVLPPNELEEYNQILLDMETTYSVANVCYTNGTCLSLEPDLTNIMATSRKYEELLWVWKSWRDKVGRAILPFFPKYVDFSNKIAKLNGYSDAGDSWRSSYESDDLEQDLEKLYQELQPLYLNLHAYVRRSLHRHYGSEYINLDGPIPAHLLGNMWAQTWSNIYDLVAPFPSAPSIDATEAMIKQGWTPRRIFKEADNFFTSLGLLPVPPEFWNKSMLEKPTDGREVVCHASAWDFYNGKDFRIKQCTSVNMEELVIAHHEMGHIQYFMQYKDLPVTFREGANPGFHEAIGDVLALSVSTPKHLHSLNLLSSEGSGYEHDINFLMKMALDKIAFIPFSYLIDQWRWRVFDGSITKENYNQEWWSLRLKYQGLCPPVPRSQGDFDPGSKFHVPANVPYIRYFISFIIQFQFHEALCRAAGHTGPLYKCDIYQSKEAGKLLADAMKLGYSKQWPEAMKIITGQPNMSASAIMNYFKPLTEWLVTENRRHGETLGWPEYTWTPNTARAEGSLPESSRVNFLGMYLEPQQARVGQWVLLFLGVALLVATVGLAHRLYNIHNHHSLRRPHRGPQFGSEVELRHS
Method: (§1) This study was performed to establish the effects of acute oral treatment of anaesthetized SHR with lysozym/alcalase on blood pressure and plasma ACE activity.
(§2) Surgery: At the day of the experiment, rats were anaesthetized and the carotid artery was cannulated for measurement of blood pressure. In addition to that, the jugular vein was cannulated to allow blood sampling for measurement of plasma ACE activity.
(§3) Protocol: At timepoint t=0, rats were administered the study drugs by means of oral gavage using a gastric tube. Blood samples were drawn immediately prior to gavage at t=0, as well as at t=0.5, t=1, t=2, t=3, t=4, t=5 and t=6 hr thereafter. Blood pressure was recorded (mean value every 10 min) throughout the 6 hr study period;
(§4) Study drugs: Rats were randomly administered either lysozym/alcalase or lysozym (both 1000 mg/kg; dissolved in 1 ml drinking water), or water only.

SHR rats = assay: Acute oral treatment of anaesthetized SHR, blood pressure; format: in vivo, rat; conditions: single oral dose 1000 mg/kg, percentage change from baseline
Method: as §1
Rats: SHR rats (382-440 g) were purchased via Harlan, Horst, The Netherlands from Harlan, Oxon, United Kingdom.
as §2, §3, §4

Chain of Angiotensin-I Converting Enzyme (ACE) (P12821 30-1306, species assumed): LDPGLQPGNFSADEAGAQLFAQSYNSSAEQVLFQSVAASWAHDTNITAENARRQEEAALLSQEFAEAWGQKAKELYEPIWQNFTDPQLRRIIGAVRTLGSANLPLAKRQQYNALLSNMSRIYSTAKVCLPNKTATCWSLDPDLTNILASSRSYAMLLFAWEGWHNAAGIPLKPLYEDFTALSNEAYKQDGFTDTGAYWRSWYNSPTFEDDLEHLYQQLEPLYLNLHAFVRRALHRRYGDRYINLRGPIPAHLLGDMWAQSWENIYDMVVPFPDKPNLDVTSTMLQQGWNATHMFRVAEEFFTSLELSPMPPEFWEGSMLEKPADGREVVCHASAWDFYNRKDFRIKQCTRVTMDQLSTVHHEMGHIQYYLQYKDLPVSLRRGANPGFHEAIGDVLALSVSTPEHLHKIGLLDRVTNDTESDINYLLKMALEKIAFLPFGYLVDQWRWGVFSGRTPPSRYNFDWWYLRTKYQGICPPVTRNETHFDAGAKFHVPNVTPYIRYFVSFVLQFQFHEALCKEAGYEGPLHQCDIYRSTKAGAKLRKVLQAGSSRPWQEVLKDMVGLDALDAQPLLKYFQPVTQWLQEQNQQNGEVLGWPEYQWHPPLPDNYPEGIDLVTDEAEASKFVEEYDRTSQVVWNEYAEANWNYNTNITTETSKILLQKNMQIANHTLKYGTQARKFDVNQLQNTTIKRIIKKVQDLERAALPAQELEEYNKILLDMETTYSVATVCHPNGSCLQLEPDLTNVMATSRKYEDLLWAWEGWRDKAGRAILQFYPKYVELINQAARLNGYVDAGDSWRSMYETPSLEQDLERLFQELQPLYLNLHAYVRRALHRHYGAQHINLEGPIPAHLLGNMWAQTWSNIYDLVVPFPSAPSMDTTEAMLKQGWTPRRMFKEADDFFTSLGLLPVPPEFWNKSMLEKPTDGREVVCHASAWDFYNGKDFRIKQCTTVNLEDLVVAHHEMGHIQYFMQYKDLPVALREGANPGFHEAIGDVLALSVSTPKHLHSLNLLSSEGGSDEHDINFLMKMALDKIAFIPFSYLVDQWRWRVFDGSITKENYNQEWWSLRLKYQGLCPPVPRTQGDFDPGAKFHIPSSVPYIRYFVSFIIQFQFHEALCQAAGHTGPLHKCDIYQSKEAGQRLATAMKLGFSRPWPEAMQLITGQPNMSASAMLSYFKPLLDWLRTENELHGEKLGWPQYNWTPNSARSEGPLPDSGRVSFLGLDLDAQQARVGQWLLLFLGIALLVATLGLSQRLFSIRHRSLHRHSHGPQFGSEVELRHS

Row | Substance | ACE inhibition ([1]; conc. 0.019 mg/ml) | ACE inhibition ([1]; conc. 0.056 mg/ml) | ACE inhibition ([1]; conc. 0.167 mg/ml) | ACE inhibition ([1]; conc. 0.500 mg/ml) | maximal decrease (inhibition) of plasma ACE activity from baseline (plasma ACE activity) | maximal reduction in SBP (SHR rats)
1 | Lys UM: lysozyme, not pre-hydrolysed, nor in vitro digested; control in SHR studies | 0.1 | 1.3 | −4.7 | 2.6 | approx. 10% | approx. 15%
2 | OM-UM: ovomucin, not pre-hydrolysed, nor in vitro digested | −0.4 | 5.2 | 2.2 | 2.1 | – | –

Reference: US8753698B2, “Anti-hypertensive functional food products” (Globus Egg Sciences B.V., priority 2004, dated 2014)
